Test results: patent US7091311

Target: murine receptor (mouse) (UniProt Q08351)
Experiment: cell-based or functional assay

murine receptor (mouse), sequence (Q08351 26-625): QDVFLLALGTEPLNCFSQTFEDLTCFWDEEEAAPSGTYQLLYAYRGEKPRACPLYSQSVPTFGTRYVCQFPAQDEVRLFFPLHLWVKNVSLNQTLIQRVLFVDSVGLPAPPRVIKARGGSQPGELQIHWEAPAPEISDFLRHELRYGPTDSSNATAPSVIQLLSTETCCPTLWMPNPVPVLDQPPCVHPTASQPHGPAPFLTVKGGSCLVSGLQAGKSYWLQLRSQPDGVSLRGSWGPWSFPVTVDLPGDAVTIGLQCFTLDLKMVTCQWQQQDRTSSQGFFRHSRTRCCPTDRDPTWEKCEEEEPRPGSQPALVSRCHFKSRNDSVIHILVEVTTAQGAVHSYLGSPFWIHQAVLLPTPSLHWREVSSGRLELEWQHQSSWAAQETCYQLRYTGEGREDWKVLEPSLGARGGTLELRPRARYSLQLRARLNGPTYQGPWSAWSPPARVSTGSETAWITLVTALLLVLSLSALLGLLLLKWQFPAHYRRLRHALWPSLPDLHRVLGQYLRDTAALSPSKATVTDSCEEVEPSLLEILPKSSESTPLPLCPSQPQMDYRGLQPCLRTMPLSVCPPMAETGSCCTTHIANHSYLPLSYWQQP

colonies of 3-5 large cells, mouse marrow in methylcellulose, 1 nM TPO #1-1: 15 colonies | colonies of 3-5 large cells, mouse marrow in methylcellulose, 1 nM TPO #1-2: 12 colonies | colonies of 3-5 large cells, mouse marrow in methylcellulose, 1 nM TPO #2-1: 16 colonies | colonies of 3-5 large cells, mouse marrow in methylcellulose, 1 nM TPO #2-2: 13 colonies | colonies of 6-12 large cells, mouse marrow in methylcellulose, 1 nM TPO #1-1: 6 colonies | colonies of 6-12 large cells, mouse marrow in methylcellulose, 1 nM TPO #1-2: 1 colonies | colonies of 6-12 large cells, mouse marrow in methylcellulose, 1 nM TPO #2-1: 8 colonies | colonies of 6-12 large cells, mouse marrow in methylcellulose, 1 nM TPO #2-2: 3 colonies
Substance: recombinant human TPO (from UniProt P40225 22-353) (ligand)
